Measurements from paper PMC3097263.

Target: T1, MqsA N97A/R101A N97A;R101A (Escherichia coli K-12?) (UniProt Q46864)
T1 sequence: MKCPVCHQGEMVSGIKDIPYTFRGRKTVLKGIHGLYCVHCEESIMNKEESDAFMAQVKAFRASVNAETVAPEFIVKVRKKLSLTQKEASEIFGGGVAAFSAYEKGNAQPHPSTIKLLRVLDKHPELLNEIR
Assay: EMSA
Details: 20 min at room temperature, binding buffer

## TGAACGTTGGTCAGACCTTGCAGGTGGGTAATGCTTCCGGTACGCCAATCACTGGCGGAAATGCCATTACCCAGGCCGACGCAGCAGAGCAAGGAGTTGTGATCAAGCCTGCACAAAATTCCACCGTTGCTGTTGCGTCGCAACCGACAATTACGTATTCTGAGTCTTCGGGTGAACAGAGTGCT (double strand) [PrpoS (Suppl. Fig. 3b probe)]
  binding: no binding
